Test results as given in patent publication EP4755449A2 (CHUGAI SEIYAKU KABUSHIKI KAISHA, dated 2026).

T1: human Fc gamma RIIb on MDCK cells (human, UniProt P31994 43-310)
T1 sequence (looked up): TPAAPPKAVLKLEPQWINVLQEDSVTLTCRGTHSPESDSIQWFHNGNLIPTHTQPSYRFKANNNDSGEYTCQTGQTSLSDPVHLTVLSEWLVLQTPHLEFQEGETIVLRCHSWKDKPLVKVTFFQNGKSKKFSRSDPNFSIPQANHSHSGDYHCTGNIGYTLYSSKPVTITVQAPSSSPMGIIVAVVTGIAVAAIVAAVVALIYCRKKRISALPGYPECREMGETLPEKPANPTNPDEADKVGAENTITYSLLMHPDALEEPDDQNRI


Molecular target: T1, human Fc gamma RIIb on MDCK cells
Assay: cell-based or functional assay

Binder	antigen fluorescence intensity inside cells (uptake of antigen-antibody complex)	antigen antibody uptake into the cells
MS103240H795-TT14/M103202L1045-SK1 (antibody, human IgG1, kappa) heavy: QVQLVESGGGLVQPGGSLRLSCAVSGIDLSHDDISWVRQAPGKGLEWVSIISYAGSTYYASWAKGRLTISKDTSKNQVVLTMTNMDPVDTATYYCARGVPAYSHGGDLWGQGTLVTVSSASTKGPSVFPLAPSSKSTSGGTAALGCLVKDYFPEPVTVSWNSGALTSGVHTFPAVLQSSGLYSLSSVVTVPSSSLGTQTYICNVNHKPSNTKVDKKVEPKSCDKTHTCPPCPAPEYLGGDSVFLFPPKPKDVLMISRTPEVTCVVIDVSHEDPEVKFNWYVDGVEVHNAKTKPREEQYNSTYRVVSVLPVLHQDWLNGKEYKCKVSNKALPKPIEKTISKAKGQPREPQVYTLPPSREEMTKNQVSLTCLVKGFYPSDIAVEWESNGQPENNYKTTPPVLDSDGSFFLYSKLTVDKSRWQQGNVFSCSVMHEALHNHYTQKSLSLSP light: DIVMTQSPATLSLSPGERATLSCTTSQSVYHENWLSWFQQKPGQPPKLLIYWASTLAYGVPSRFSGSGSGTDFTLTISSLQPEDAATYYCAGGYGGGRYAFGQGTKVEIKRTVAAPSVFIFPPSDEQLKSGTASVVCLLNNFYPREAKVQWKVDNALQSGNSQESVTEQDSKDSTYSLSSTLTLSKADYEKHKVYACEVTHQGLSSPVTKSFNRGEC	7.5 fold of SG1	–
MS103240H795-TT33/M103202L1045-SK1 (antibody, human IgG1, kappa) heavy: QVQLVESGGGLVQPGGSLRLSCAVSGIDLSHDDISWVRQAPGKGLEWVSIISYAGSTYYASWAKGRLTISKDTSKNQVVLTMTNMDPVDTATYYCARGVPAYSHGGDLWGQGTLVTVSSASTKGPSVFPLAPSSKSTSGGTAALGCLVKDYFPEPVTVSWNSGALTSGVHTFPAVLQSSGLYSLSSVVTVPSSSLGTQTYICNVNHKPSNTKVDKKVEPKSCDKTHTCPPCPAPEYLGGDSVFLFPPKPKDVLMISRTPEVTCVVIDVSHEDPEVKFNWYVDGVEVHNAKTKPREEQYNSTYRVVSVLPVLHRDWLNGKEYKCKVSNKALPKPIEKTISKAKGQPREPQVYTLPPSREEMTKNQVSLTCLVKGFYPSDIAVEWESNGQPENNYKTTPPVLDSDGSFFLYSKLTVKKSRWQQGNVFSCSVMHEALHNHYTQKSLSLSP light: DIVMTQSPATLSLSPGERATLSCTTSQSVYHENWLSWFQQKPGQPPKLLIYWASTLAYGVPSRFSGSGSGTDFTLTISSLQPEDAATYYCAGGYGGGRYAFGQGTKVEIKRTVAAPSVFIFPPSDEQLKSGTASVVCLLNNFYPREAKVQWKVDNALQSGNSQESVTEQDSKDSTYSLSSTLTLSKADYEKHKVYACEVTHQGLSSPVTKSFNRGEC	–	36 fold of SG1
